Assay results: PMC10213792 (Acta Pharmaceutica Sinica. B, 2023)
The star is where a group is joined. FITC = O=C1OC2(c3ccc(O)cc3Oc3cc(O)ccc32)c2ccc(NC(=S)*)cc21

B1: His-tagged SepFc (N-terminal truncated version of SepF, amino acids 115-203) (domain or fragment)
chain: EMTRPRFGSWLRNSTRGALAMDPRRMAMMFEDGHPLSKITTLRPKDYSEARTIGERFRDGSPVIMDLVSMDNADAKRLVDFAAGLAFAL

How the values were obtained:
SepF = SepF (Mycobacterium tuberculosis, UniProt P9WGJ5); test: SPR; type: binding
[1] = molecular target: B1; test: fluorescence polarisation
His-tagged FtsZ = molecular target: T1, His-tagged FtsZ (M. tuberculosis H37Rv, UniProt P9WN95 1-379); test: SPR
T1 sequence: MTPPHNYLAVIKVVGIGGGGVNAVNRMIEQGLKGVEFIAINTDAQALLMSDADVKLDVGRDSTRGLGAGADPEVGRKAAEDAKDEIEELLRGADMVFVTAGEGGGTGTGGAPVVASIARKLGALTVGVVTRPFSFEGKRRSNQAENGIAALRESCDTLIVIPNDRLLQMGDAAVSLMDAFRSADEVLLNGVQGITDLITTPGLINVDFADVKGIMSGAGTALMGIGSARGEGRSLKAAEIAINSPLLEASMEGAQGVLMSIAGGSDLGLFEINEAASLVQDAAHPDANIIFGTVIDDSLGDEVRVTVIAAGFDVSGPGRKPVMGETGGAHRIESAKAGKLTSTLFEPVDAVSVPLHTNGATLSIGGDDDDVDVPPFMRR

Sequence of SepF (P9WGJ5 115-203): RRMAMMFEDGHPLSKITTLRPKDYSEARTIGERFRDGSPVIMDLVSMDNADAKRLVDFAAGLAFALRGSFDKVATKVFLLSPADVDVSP

Question: For `OC(COc1ccc2ccccc2c1)CN1CCCN(CC(O)COc2ccc3ccccc3c2)CC1` (stereo not drawn) [T0349, 1-{4-[2-hydroxy-3-(naphthalen-2-yloxy)propyl]-1,4-diazepan-1-yl}-3-(naphthalen-2-yloxy) propan-2-ol], which Kd (SepF) is on record?
Answer: The Kd was 46.8 µM.

Question: {FITC}-SIGGDDDDVDVPPFMRR-OH [FITC-FtsZ (FITC-SIGGDDDDVDVPPFMRR-OH, 363-379 amino acids of the full-length FtsZ)] was tested. Which Kd [1] did it give?
Answer: Its Kd is 0.0186 µM.

Question: With B1 as the molecule, how does the Kd (His-tagged FtsZ) read?
Answer: Its Kd is 5.16 µM.
